Data: PMC3659094

Target: human Tyrosine kinase receptor B (TrkB) (human) (UniProt Q16620)
Sequence of UniProt Q16620 (Q16620 other isoform, or with tags, fused parts or gaps): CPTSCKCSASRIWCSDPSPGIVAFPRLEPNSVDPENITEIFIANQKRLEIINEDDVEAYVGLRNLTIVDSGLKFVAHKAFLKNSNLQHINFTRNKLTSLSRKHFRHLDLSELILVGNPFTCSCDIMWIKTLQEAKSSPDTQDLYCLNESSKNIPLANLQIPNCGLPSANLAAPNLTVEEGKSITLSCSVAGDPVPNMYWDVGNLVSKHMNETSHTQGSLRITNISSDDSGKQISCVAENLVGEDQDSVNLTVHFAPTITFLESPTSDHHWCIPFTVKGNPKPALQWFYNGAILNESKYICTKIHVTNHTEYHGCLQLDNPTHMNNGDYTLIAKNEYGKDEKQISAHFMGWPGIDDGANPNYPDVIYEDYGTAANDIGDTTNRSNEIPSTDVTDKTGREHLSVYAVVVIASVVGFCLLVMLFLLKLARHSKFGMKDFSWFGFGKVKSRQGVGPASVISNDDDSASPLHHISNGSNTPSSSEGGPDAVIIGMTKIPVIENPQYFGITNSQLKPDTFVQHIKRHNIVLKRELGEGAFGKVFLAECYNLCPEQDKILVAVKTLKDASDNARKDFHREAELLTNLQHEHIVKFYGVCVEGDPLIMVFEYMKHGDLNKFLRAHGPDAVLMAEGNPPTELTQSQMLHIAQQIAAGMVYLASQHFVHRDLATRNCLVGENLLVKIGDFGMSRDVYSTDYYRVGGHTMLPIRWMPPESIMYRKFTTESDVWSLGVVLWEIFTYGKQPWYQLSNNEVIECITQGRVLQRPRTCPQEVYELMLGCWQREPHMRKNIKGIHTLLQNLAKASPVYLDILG

brain-derived neurotrophic factor (BDNF) (ligand)
EC50 of recruitment of SHC1 to human TrkB in U2OS cells (Pathhunter): 1 nM | EC50 of transcriptional activation of a CRE-luciferase reporter in HEK293 cells expressing human TrkB: 5.2 nM
